# Laboratory results taken from PMC6547859 (The Journal of Experimental Medicine, 2019).
# Target: the molecule itself
# Test: SEC
protein,measurement,value
"FLAG-tagged Regnase-1, full-length, phosphorylated (Expi293F, coexpressed with Myc-Act1 and HA-TBK1 or HA-IKKi) (natural protein, UniProt Q5D1E7 1-596, looked up, phosphorylated by coexpression with Act1 and TBK1 or IKKi; phosphorylation sites identified: Ser439, Ser494, Thr505, Ser508, Ser513) MSDPCGTKPVQESNPTMSLWSLEDRHSSQGRPQPDQDPVAKEAPTSELQMKVDFFRKLGYSSSEIHSVLQKLGVQADTNTVLGELVKHGSATERECQALTAPSPQPPLVPRGGSTPKPSTLEPSLPEEDREGSDLRPVVIDGSNVAMSHGNKEVFSCRGILLAVNWFLERGHTDITVFVPSWRKEQPRPDVPITDQHILRELEKKKILVFTPSRRVGGKRVVCYDDRFIVKLAFESDGVVVSNDTYRDLQGERQEWKRFIEERLLMYSFVNDKFMPPDDPLGRHGPSLDNFLRKKPLPSEHRKQPCPYGKKCTYGIKCRFFHPERPSRPQRSVADELRANALLSPPRTPVKDKSSQRPSPASQSSSVSLEAEPGSLDGKKLGARSSPGPHREGSPQTCAPAGRSLPVSGGSFGPTEWLAHTQDSLPYTSQECLDSGIGSLESQMSELWGVRGGSPGESGPTRGPYAGYHSYGSKVPAAPSFSPFRPAMGAGHFSVPTDYVPPPPTYPSREYWSEPYPLPPPTPVLQEPQRPSPGAGGGPWGRVGDLAKERAGVYTKLCGVFPPHLVEAVMRRFPQLLDPQQLAAEILSYKSQHLSE",stoichiometry N,3
